Entries after “also recorded” stand apart in the source; their conditions may differ. Non-standard residues stand in square brackets, D forms with d. No end group written: not given here. *: point of attachment. EDDnp = O=[N+]([O-])c1ccc(NCCN*)c([N+](=O)[O-])c1; 2Abz = Nc1ccccc1C(=O)O
Target: T1, Recombinant KLK2 (Homo sapiens, UniProt P20151)
T1 construct: made in house; host or cells: baculovirus-insect cell line system
Assay: Hydrolysis of FRET peptides by recombinant KLK2 (kinetic parameters)
Format: biochemical
Settings: for hydrolysis by KLK2 (in words): FRET peptides derived from the IL-10R2 ectodomain
Excerpt: Obtained from a baculovirus-insect cell line system, purified, and activated as previously reported,[14] MUGB (4-methylumbelliferyl p-guanidino benzoate hydrochloride) was used for the spectrofluorimetric determination of molar concentrations of active KLK2.[15] KLK3 was obtained and assayed as previously reported.[3]
All of the FRET peptides were obtained by solid-phase peptide synthesis. The purity of FRET peptides to 95% or higher was obtained by semipreparative HPLC on a C18 reversed-phase column and used as protease substrates, as previously reported.[5] Details about the purification and quality of the FRET peptides are provided in the Supporting Information. The enzymatic kinetic measurements were all performed with FRET peptides as previously described.[5]
Five series of FRET peptides derived from Abz-KLRSSK-Q-EDDnp were assayed with KLK2 in 20 mM Tris–HCl, pH 8.0, and 1 M sodium citrate. […] The specificity of subsites S3, S2, S1’, and S2’ was explored by the FRET peptide series Abz-XLRSSKQ-EDDnp (for S3), Abz-KXRSSKQ-EDDnp (for S2), Abz-KLRXSKQ-EDDnp (for S1’), and Abz-KLRSXKQ-EDDnp (for S2’). All of them were hydrolyzed only at R–S or R–X peptide bonds, and the kinetic parameters for their hydrolysis by KLK2 are listed in Table 1.

[1] = pH 8.0, 20 mM Tris–HCl, 1 M sodium citrate, 37 °C, KLK2 1.6 nM, three enzymatic reactions, standard errors 5% or less
[2] = Table 3, FRET peptides derived from the IL-10R2 ectodomain

T1 sequence (P20151 25-261): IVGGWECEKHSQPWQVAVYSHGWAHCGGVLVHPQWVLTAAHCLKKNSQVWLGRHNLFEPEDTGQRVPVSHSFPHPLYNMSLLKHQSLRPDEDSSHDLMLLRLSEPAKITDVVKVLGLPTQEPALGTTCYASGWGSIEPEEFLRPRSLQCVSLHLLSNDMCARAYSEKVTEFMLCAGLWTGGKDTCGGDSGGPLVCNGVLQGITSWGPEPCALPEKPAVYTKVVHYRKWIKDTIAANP

Substance: Abz-KLRSSKQ-EDDnp [parent FRET peptide, cleaved at the R–S peptide bond by KLK2]
- kcat/Km (20 mM Tris–HCl, pH 8.0, 1 M sodium citrate): 1738 mM^–1 s^–1
- Km [1]: 6.5 µM
- kcat [1]: 11.3 s^–1
- kcat/Km [1]: 1738 s^–1 mM^–1

Substance: Abz-KLRSXKQ-EDDnp, X = A: FRET peptide, S2’ series, X = A ([2Abz]KLRSAKQ-EDDnp)
- Km [1]: 3.8 µM
- kcat [1]: 12.2 s^–1
- kcat/Km [1]: 3211 s^–1 mM^–1

Substance: Abz-KLRSXKQ-EDDnp, X = E: FRET peptide, S2’ series, X = E ([2Abz]KLRSEKQ-EDDnp)
- Km [1]: 8 µM
- kcat [1]: 7.1 s^–1
- kcat/Km [1]: 888 s^–1 mM^–1

Substance: Abz-KLRSXKQ-EDDnp, X = F: FRET peptide, S2’ series, X = F ([2Abz]KLRSFKQ-EDDnp)
- Km [1]: 2.4 µM
- kcat [1]: 12.4 s^–1
- kcat/Km [1]: 5167 s^–1 mM^–1

Substance: Abz-KLRSXKQ-EDDnp, X = G: FRET peptide, S2’ series, X = G ([2Abz]KLRSGKQ-EDDnp)
- Km [1]: 4.5 µM
- kcat [1]: 3.5 s^–1
- kcat/Km [1]: 778 s^–1 mM^–1

Substance: Abz-KLRSXKQ-EDDnp, X = H: FRET peptide, S2’ series, X = H (N-terminal Abz, C-terminal EDDnp; X = H)
- Km [1]: 5.9 µM
- kcat [1]: 4.4 s^–1

Substance: Abz-KLRSXKQ-EDDnp, X = I: FRET peptide, S2’ series, X = I ([2Abz]KLRSIKQ-EDDnp)
- Km [1]: 2.8 µM
- kcat [1]: 4.4 s^–1
- kcat/Km [1]: 1571 s^–1 mM^–1

Substance: Abz-KLRSXKQ-EDDnp, X = L: FRET peptide, S2’ series, X = L ([2Abz]KLRSLKQ-EDDnp)
- Km [1]: 2.8 µM
- kcat [1]: 8.5 s^–1
- kcat/Km [1]: 3036 s^–1 mM^–1

Substance: Abz-KLRSXKQ-EDDnp, X = N: FRET peptide, S2’ series, X = N ([2Abz]KLRSNKQ-EDDnp)
- Km [1]: 8.8 µM
- kcat [1]: 4.9 s^–1
- kcat/Km [1]: 557 s^–1 mM^–1

Substance: Abz-KLRSXKQ-EDDnp, X = Q: FRET peptide, S2’ series, X = Q ([2Abz]KLRSQKQ-EDDnp)
- Km [1]: 5.2 µM
- kcat [1]: 6.5 s^–1
- kcat/Km [1]: 1250 s^–1 mM^–1

Substance: Abz-KLRSXKQ-EDDnp, X = R: FRET peptide, S2’ series, X = R ([2Abz]KLRSRKQ-EDDnp)
- Km [1]: 3.6 µM
- kcat [1]: 3.2 s^–1
- kcat/Km [1]: 888 s^–1 mM^–1

Substance: Abz-KLRSXKQ-EDDnp, X = V: FRET peptide, S2’ series, X = V ([2Abz]KLRSVKQ-EDDnp)
- Km [1]: 4.2 µM
- kcat [1]: 15.3 s^–1
- kcat/Km [1]: 3643 s^–1 mM^–1

Substance: Abz-KLRXSKQ-EDDnp, X = E: FRET peptide, S1’ series, X = E ([2Abz]KLRESKQ-EDDnp)
- Km [1]: 6.6 µM
- kcat [1]: 10.3 s^–1
- kcat/Km [1]: 1561 s^–1 mM^–1

Substance: Abz-KLRXSKQ-EDDnp, X = F: FRET peptide, S1’ series, X = F ([2Abz]KLRFSKQ-EDDnp)
- Km [1]: 1.2 µM
- kcat [1]: 3.5 s^–1
- kcat/Km [1]: 2917 s^–1 mM^–1

Substance: Abz-KLRXSKQ-EDDnp, X = G: FRET peptide, S1’ series, X = G ([2Abz]KLRGSKQ-EDDnp)
- Km [1]: 7.3 µM
- kcat [1]: 19.9 s^–1

Substance: Abz-KLRXSKQ-EDDnp, X = H: FRET peptide, S1’ series, X = H (N-terminal Abz, C-terminal EDDnp; X = H)
- Km [1]: 4.3 µM
- kcat [1]: 8.0 s^–1
- kcat/Km [1]: 1860 s^–1 mM^–1

Substance: Abz-KLRXSKQ-EDDnp, X = I: FRET peptide, S1’ series, X = I ([2Abz]KLRISKQ-EDDnp)
- Km [1]: 1.8 µM
- kcat [1]: 7.2 s^–1
- kcat/Km [1]: 4000 s^–1 mM^–1

Substance: Abz-KLRXSKQ-EDDnp, X = L: FRET peptide, S1’ series, X = L ([2Abz]KLRLSKQ-EDDnp)
- Km [1]: 3.3 µM
- kcat [1]: 6.7 s^–1
- kcat/Km [1]: 2030 s^–1 mM^–1

Substance: Abz-KLRXSKQ-EDDnp, X = N: FRET peptide, S1’ series, X = N ([2Abz]KLRNSKQ-EDDnp)
- Km [1]: 8.6 µM
- kcat [1]: 14.8 s^–1
- kcat/Km [1]: 1733 s^–1 mM^–1

Substance: Abz-KLRXSKQ-EDDnp, X = Q: FRET peptide, S1’ series, X = Q ([2Abz]KLRQSKQ-EDDnp)
- Km [1]: 6.1 µM
- kcat [1]: 8.5 s^–1
- kcat/Km [1]: 1393 s^–1 mM^–1

Substance: Abz-KLRXSKQ-EDDnp, X = R: FRET peptide, S1’ series, X = R ([2Abz]KLRRSKQ-EDDnp)
- Km [1]: 5.4 µM
- kcat [1]: 8.2 s^–1
- kcat/Km [1]: 1519 s^–1 mM^–1

Substance: Abz-KLRXSKQ-EDDnp, X = V: FRET peptide, S1’ series, X = V ([2Abz]KLRVSKQ-EDDnp)
- Km [1]: 2.2 µM
- kcat [1]: 8.1 s^–1
- kcat/Km [1]: 3682 s^–1 mM^–1

Substance: Abz-KXRSSKQ-EDDnp, X = A: FRET peptide, S2 series, X = A [Abz-KXRSSKQ-EDDnp, X = A] ([2Abz]KARSSKQ-EDDnp)
- Km [1]: 4.8 µM
- kcat [1]: 2.2 s^–1
- kcat/Km [1]: 458 s^–1 mM^–1

Substance: Abz-KXRSSKQ-EDDnp, X = E: FRET peptide, S2 series, X = E [Abz-KXRSSKQ-EDDnp, X = E] ([2Abz]KERSSKQ-EDDnp)
- Km [1]: 9.1 µM
- kcat [1]: 1.0 s^–1
- kcat/Km [1]: 110 s^–1 mM^–1

Substance: Abz-KXRSSKQ-EDDnp, X = F: FRET peptide, S2 series, X = F ([2Abz]KFRSSKQ-EDDnp)
- Km [1]: 1.6 µM
- kcat [1]: 4.1 s^–1
- kcat/Km [1]: 2563 s^–1 mM^–1

Substance: Abz-KXRSSKQ-EDDnp, X = G: FRET peptide, S2 series, X = G ([2Abz]KGRSSKQ-EDDnp)
- Km [1]: 12.4 µM
- kcat [1]: 1.0 s^–1
- kcat/Km [1]: 81 s^–1 mM^–1

Substance: Abz-KXRSSKQ-EDDnp, X = H: FRET peptide, S2 series, X = H (N-terminal Abz, C-terminal EDDnp; X = H)
- Km [1]: 9.6 µM
- kcat [1]: 4.7 s^–1
- kcat/Km [1]: 490 s^–1 mM^–1

Substance: Abz-KXRSSKQ-EDDnp, X = I: FRET peptide, S2 series, X = I [Abz-KXRSSKQ-EDDnp, X = I] (Abz-KIRSSKQ-EDDnp)
- Km [1]: 4.5 µM
- kcat [1]: 4.7 s^–1
- kcat/Km [1]: 1044 s^–1 mM^–1

Substance: Abz-KXRSSKQ-EDDnp, X = K: FRET peptide, S2 series, X = K (Abz-KKRSSKQ-EDDnp)
- Km [1]: 7.2 µM
- kcat [1]: 3.0 s^–1
- kcat/Km [1]: 417 s^–1 mM^–1

Substance: Abz-KXRSSKQ-EDDnp, X = N: FRET peptide, S2 series, X = N (Abz-KNRSSKQ-EDDnp)
- Km [1]: 10.1 µM
- kcat [1]: 3.3 s^–1
- kcat/Km [1]: 327 s^–1 mM^–1

Substance: Abz-KXRSSKQ-EDDnp, X = Q: FRET peptide, S2 series, X = Q [Abz-KXRSSKQ-EDDnp, X = Q] (Abz-KQRSSKQ-EDDnp)
- Km [1]: 8.3 µM
- kcat [1]: 6.4 s^–1
- kcat/Km [1]: 771 s^–1 mM^–1

Substance: Abz-KXRSSKQ-EDDnp, X = R: FRET peptide, S2 series, X = R (Abz-KRRSSKQ-EDDnp)
- Km [1]: 5.2 µM
- kcat [1]: 8.7 s^–1
- kcat/Km [1]: 1673 s^–1 mM^–1

Substance: Abz-KXRSSKQ-EDDnp, X = S: FRET peptide, S2 series, X = S (Abz-KSRSSKQ-EDDnp)
- Km [1]: 9.1 µM
- kcat [1]: 1.1 s^–1
- kcat/Km [1]: 121 s^–1 mM^–1

Substance: Abz-KXRSSKQ-EDDnp, X = T: FRET peptide, S2 series, X = T (Abz-KTRSSKQ-EDDnp)
- Km [1]: 10.5 µM
- kcat [1]: 3.6 s^–1
- kcat/Km [1]: 343 s^–1 mM^–1

Substance: Abz-KXRSSKQ-EDDnp, X = V: FRET peptide, S2 series, X = V (Abz-KVRSSKQ-EDDnp)
- Km [1]: 8.5 µM
- kcat [1]: 9.9 s^–1
- kcat/Km [1]: 1165 s^–1 mM^–1

Substance: Abz-KXRSSKQ-EDDnp, X = Y: FRET peptide, S2 series, X = Y [Abz-KXRSSKQ-EDDnp, X = Y] (Abz-KYRSSKQ-EDDnp)
- Km [1]: 5.6 µM
- kcat [1]: 12.8 s^–1
- kcat/Km [1]: 2304 s^–1 mM^–1

Substance: Abz-LPDRNK-Q-EDDnp [FRET peptide derived from the IL-10R2 ectodomain, ^195LPDRN^200K]
- hydrolysis by KLK2 (in words): resistant to KLK2; also recorded: no hydrolysis

Substance: Abz-LSKYGD-Q-EDDnp [FRET peptide derived from the IL-10R2 ectodomain, ^79LSKYG^84D]
- hydrolysis by KLK2 (in words): resistant to hydrolysis; also recorded: no hydrolysis

Substance: Abz-SYRIFQ-Q-EDDnp [FRET peptide derived from the IL-10R2 ectodomain, ^58SYRI^62F]
- Km [2]: 0.95 µM
- kcat [2]: 7.3 s^–1
- kcat/Km [2]: 7684 mM s–1

Substance: Abz-TLRVRAE-Q-EDDnp [FRET peptide derived from the IL-10R2 ectodomain, ^86TLRVRA^92E]
- Km [2]: 1.34 µM
- kcat [2]: 2.47 s^–1
- kcat/Km [2]: 1843 mM s–1

Substance: Abz-XLRSSKQ-EDDnp, X = E: FRET peptide, S3 series, X = E (Abz-ELRSSKQ-EDDnp)
- Km [1]: 7.6 µM
- kcat [1]: 7.4 s^–1
- kcat/Km [1]: 974 s^–1 mM^–1

Substance: Abz-XLRSSKQ-EDDnp, X = F: FRET peptide, S3 series, X = F [Abz-XLRSSKQ-EDDnp, X = F] (Abz-FLRSSKQ-EDDnp)
- Km [1]: 6.6 µM
- kcat [1]: 9.6 s^–1
- kcat/Km [1]: 1455 s^–1 mM^–1
